The Immune Epitope Database (IEDB)

Experiments:
HLA-A*11:01 = experiment: IEDB peptide-MHC binding, purified MHC/competitive/radioactivity; filed as Kd, often an IC50 or EC50 that approximates it; ≥ and ≤ were set here for values at or beyond the usual limits of such assays; conditions: source organism: Vaccinia virus WR
HLA-B*07:02 = experiment: as above; conditions: source organism: Vaccinia virus WR

Sequence | Kd (HLA-A*11:01) [nM] | Kd (HLA-B*07:02) [nM]
AFEFINSLLK | 470 | –
LPRPDTRHL | – | 14
RPSTRNFFEL | – | 11
